Assay results published in patent US20080241172A1 (CENTRE NATIONAL DE LA RECHERCHE SCIENTIFIQUE, published 2008).
Changes are numbered by the printed parent chain. Names and notes keep the numbering of the source.

B1: Torpedo AChET mutant with M22 of the t peptide replaced by a cysteine, with mutation of C37 (C37S) (enzyme)
chain: DDDSELLVNTKSGKVMRTRIPVLSSHISAFLGIPFAEPPVGNMRFRRPEPKKPWSGVWNASTYPNNCQQYVDEQFPGFPGSEMWNPNREMSEDCLYLNIWVPSPRPKSATVMLWIYGGGFYSGSSTLDVYNGKYLAYTEEVVLVSLSYRVGAFGFLALHGSQEAPGNMGLLDQRMALQWVHDNIQFFGGDPKTVTLFGESAGRASVGMHILSPGSRDLFRRAILQSGSPNCPWASVSVAEGRRRAVELRRNLNCNLNSDEDLIQCLREKKPQELIDVEWNVLPFDSIFRFSFVPVIDGEFFPTSLESMLNAGNFKKTQILLGVNKDEGSFFLLYGAPGFSKDSESKISREDFMSGVKLSVPHANDLGLDAVTLQYTDWMDDNNGIKNRDGLDDIVGDHNVICPLMHFVNKYTKFGNGTYLYFFNHRASNLVWPEWMGVIHGYEIEFVFGLPLVKELNYTAEEEALSRRIMHYWATFAKTGNPNEPHSQESKWPLFTTKEQKFIDLNTEPIKVHQRLRVQMCVFWNQFLPKLLNATETIDEAERQWKTEFHRWSSYMCHWKNQFDQYSRHENSAEL
notes: also called M22 with C37S
B2: Torpedo AChET mutant T12C (enzyme)
chain: B1 chain with T547C, C557M, S572C
B3: wild type Torpedo AChET (enzyme)
chain: B1 chain with C557M, S572C
notes: The wild type is built by undoing that change; Expressed in transfected COS cells; cell extracts and medium were analysed; also called wild type AChET subunits
B4: Torpedo AChET mutant with H34 of the t peptide replaced by a cysteine, with mutation of C37 (C37S) (enzyme)
chain: B1 chain with C557M, H569C
notes: also called H34 with C37S
B5: Torpedo AChET mutant with A6 of the t peptide replaced by a cysteine (enzyme)
chain: B1 chain with A541C, C557M, S572C
B6: Torpedo AChET mutant with residue 3 of the t peptide replaced by a cysteine (enzyme)
chain: B1 chain with I538C, C557M, S572C
notes: also called 13 (printed; read as I3)
B7: Torpedo AChET mutant C37S (enzyme)
chain: B1 chain with C557M

How the values were obtained:
[1] = target: the molecule itself; test: homodimers from transfected COS cells; sedimentation in sucrose gradients
Procedure: (§1) COS cells were transfected by the DEAE-dextran method, as previously described (Bon et al., 1997), using 4 μg of DNA encoding the AChE catalytic subunit and 4 μg of DNA encoding QN or PRAD-deleted QN, per 100 mm dish. Because Torpedo AChE folds into its active conformation at 27° C., but not at 37° C., the cells were incubated for two days at 37° C. after transfection, then transferred to 27° C. and maintained at this temperature for 3-4 days, in a medium containing 10% Nuserum (Inotech, Dottikon, Switzerland), which had been pretreated with 10⁻⁶ M soman to inactivate serum choline sterases.
(§2) Centrifugation was performed in 5-20% sucrose gradients (50 mM Tris-HCl, pH 7.5, 50 mM MgCl₂, either in the presence of 0.2% Brij-97 or in the presence of 0.2% Triton X-100) in a Beckman SW41 rotor, at 36,000 rpm, for 18 h at 6° C. The gradients contained Escherichia coli β-galactosidase (16 S) and alkaline phosphatase (6.1 S) as internal sedimentation standards (Bon et al., 1997). Amphiphilic molecules generally sediment faster in the presence of Triton X100 than of Brij-97, providing an indication on their amphiphilic character.

[2] = target: the molecule itself; test: homo-oligomers from transfected COS cells; sedimentation in sucrose gradients
Procedure: as §1, §2

[3] = target: the molecule itself; test: homo-oligomers from transfected COS cells; sedimentation in sucrose gradients (tetramers still formed, dimers not)
Procedure: as §1, §2

Protein	binding result [1]	also measured
B1	binds	–
B2	–	binding result [2]: binds
B3	–	binding result [2]: binds
B4	binds	–
B5	binds	–
B6	binds	–
B7	–	binding result [3]: binds
